Laboratory results: publication PMC2756588

T1: Lsb1, P53281
T1 sequence (P53281 45-122, looked up): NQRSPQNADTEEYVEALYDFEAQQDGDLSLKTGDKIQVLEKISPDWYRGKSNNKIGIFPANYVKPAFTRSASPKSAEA

T2: Myo5, Q04439
T2 sequence (Q04439 1072-1160, looked up): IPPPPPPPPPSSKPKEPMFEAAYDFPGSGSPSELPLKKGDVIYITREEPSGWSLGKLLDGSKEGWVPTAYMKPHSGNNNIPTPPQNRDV

T3: Sla1-3, P32790
T3 sequence (P32790 344-424, looked up): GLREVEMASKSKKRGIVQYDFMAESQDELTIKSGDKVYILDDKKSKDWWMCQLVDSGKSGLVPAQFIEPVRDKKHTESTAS

T4: Lsb3, P43603
T4 sequence (P43603 385-451, looked up): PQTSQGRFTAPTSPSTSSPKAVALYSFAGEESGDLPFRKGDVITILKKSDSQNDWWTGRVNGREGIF

T5: Hof1, Q05080
T5 sequence (Q05080 590-669, looked up): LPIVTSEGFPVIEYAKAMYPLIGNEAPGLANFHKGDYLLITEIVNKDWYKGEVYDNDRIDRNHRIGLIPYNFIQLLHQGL

T6: Bbc1, P47068
T6 sequence (P47068 1-78, looked up): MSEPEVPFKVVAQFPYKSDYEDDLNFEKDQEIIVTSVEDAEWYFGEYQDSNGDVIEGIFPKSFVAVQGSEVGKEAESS

T7: Boi2, P39969
T7 sequence (P39969 32-116, looked up): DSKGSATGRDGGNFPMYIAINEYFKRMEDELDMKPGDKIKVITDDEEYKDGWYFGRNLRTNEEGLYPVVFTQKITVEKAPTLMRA

T8: Cdc25, P04821
T8 sequence (P04821 50-136, looked up): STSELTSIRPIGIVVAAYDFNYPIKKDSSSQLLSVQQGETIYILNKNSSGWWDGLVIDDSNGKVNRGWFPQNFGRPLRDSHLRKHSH

T9: Lsb4, P32793
T9 sequence (P32793 402-468, looked up): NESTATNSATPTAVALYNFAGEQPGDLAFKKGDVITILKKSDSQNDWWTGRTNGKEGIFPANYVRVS

T10: Sla1-2, P32790
T10 sequence (P32790 60-140, looked up): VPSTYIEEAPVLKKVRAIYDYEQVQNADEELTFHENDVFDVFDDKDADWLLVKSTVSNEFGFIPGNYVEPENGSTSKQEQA

T11: Pex13, P80667
T11 sequence (P80667 295-386, looked up): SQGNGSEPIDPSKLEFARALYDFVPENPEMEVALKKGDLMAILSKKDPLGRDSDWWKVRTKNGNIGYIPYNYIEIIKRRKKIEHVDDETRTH

T12: Bzz1-2, P38822
T12 sequence (P38822 568-633, looked up): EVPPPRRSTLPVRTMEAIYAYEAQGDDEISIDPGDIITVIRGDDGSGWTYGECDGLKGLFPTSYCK

T13: Hse1, P38753
T13 sequence (P38753 208-285, looked up): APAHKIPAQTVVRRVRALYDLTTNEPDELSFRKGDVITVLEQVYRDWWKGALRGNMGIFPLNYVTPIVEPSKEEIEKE

T14: Bzz1-1, P38822
T14 sequence (P38822 478-572, looked up): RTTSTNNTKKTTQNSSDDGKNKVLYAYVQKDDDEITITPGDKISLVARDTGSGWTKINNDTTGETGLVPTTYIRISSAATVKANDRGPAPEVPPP

T15: Abp1, P15891
T15 sequence (P15891 535-592, looked up): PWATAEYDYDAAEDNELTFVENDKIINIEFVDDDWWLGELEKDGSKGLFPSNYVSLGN

T16: Bud14, P27637
T16 sequence (P27637 247-328, looked up): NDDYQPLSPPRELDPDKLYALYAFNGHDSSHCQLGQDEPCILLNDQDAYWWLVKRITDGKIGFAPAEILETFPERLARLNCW

T17: Boi1, P38041
T17 sequence (P38041 1-86, looked up): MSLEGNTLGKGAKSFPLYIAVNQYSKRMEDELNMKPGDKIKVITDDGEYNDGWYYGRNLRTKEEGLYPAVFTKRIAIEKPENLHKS

T18: Cyk3, Q07533
T18 sequence (Q07533 1-83, looked up): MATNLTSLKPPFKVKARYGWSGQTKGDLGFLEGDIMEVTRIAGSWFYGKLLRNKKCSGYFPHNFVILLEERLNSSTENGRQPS

T19: Pin3, Q06449
T19 sequence (Q06449 53-122, looked up): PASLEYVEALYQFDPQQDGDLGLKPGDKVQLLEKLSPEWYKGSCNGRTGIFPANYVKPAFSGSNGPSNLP

T20: Fus1, P11710
T20 sequence (P11710 432-512, looked up): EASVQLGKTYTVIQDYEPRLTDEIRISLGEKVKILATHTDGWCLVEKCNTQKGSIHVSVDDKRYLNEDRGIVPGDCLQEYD

T21: Nbp2, Q12163
T21 sequence (Q12163 103-180, looked up): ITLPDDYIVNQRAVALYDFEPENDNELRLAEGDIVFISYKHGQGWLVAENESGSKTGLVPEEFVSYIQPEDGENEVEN


What was measured:
Experiment in all cases: SPOT array
Lsb1, P53281 = molecular target: T1, Lsb1, P53281; conditions: median of control spots 388
Myo5, Q04439 = molecular target: T2, Myo5, Q04439; conditions: median of control spots 471
Sla1-3, P32790 = molecular target: T3, Sla1-3, P32790; conditions: median of control spots 5475
Lsb3, P43603 = molecular target: T4, Lsb3, P43603; conditions: median of control spots 406
Hof1, Q05080 = molecular target: T5, Hof1, Q05080; conditions: median of control spots 4086
Bbc1, P47068 = molecular target: T6, Bbc1, P47068; conditions: median of control spots 796
Boi2, P39969 = molecular target: T7, Boi2, P39969; conditions: median of control spots 1161
Rvs167, P39743 = conditions: median of control spots 2707
Rvs167, P39743, sequence (P39743 419-482): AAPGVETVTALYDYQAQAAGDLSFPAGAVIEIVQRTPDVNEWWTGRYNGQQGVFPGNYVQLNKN

Cdc25, P04821 = molecular target: T8, Cdc25, P04821; conditions: median of control spots 969
Lsb4, P32793 = molecular target: T9, Lsb4, P32793; conditions: median of control spots 397
Sla1-2, P32790 = molecular target: T10, Sla1-2, P32790; conditions: median of control spots 712
Pex13, P80667 = molecular target: T11, Pex13, P80667; conditions: median of control spots 1341
Bzz1-2, P38822 = molecular target: T12, Bzz1-2, P38822; conditions: median of control spots 4538
Hse1, P38753 = molecular target: T13, Hse1, P38753; conditions: median of control spots 1727
Bzz1-1, P38822 = molecular target: T14, Bzz1-1, P38822; conditions: median of control spots 4446
Abp1, P15891 = molecular target: T15, Abp1, P15891; conditions: median of control spots 935
GST = conditions: median of control spots 978
Sho1, P40073 = conditions: median of control spots 1148
Sho1, P40073, sequence (P40073 287-367): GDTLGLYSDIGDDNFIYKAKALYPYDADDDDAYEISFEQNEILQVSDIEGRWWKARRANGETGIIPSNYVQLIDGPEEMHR

Bud14, P27637 = molecular target: T16, Bud14, P27637; conditions: median of control spots 956
Bem1-2, P29366 = conditions: median of control spots 4347
Bem1-2, P29366, sequence (P29366 139-227): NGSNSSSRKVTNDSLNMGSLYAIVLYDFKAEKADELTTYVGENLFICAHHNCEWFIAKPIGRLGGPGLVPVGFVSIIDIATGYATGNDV

Boi1, P38041 = molecular target: T17, Boi1, P38041; conditions: median of control spots 1162
Cyk3, Q07533 = molecular target: T18, Cyk3, Q07533; conditions: median of control spots 1451
Myo3, P36006 = conditions: median of control spots 468
Pin3, Q06449 = molecular target: T19, Pin3, Q06449; conditions: median of control spots 2171
Fus1, P11710 = molecular target: T20, Fus1, P11710; conditions: median of control spots 1200
Nbp2, Q12163 = molecular target: T21, Nbp2, Q12163; conditions: median of control spots 357
Bem1-1, P29366 = conditions: median of control spots 4282
Bem1-1, P29366, sequence (P29366 55-141): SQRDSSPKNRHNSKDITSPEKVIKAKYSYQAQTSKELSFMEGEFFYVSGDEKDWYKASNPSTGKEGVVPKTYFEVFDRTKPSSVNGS

Binder	SPOT intensity (Lsb1, P53281)	SPOT intensity (Myo5, Q04439)	SPOT intensity (Sla1-3, P32790)	SPOT intensity (Lsb3, P43603)	SPOT intensity (Hof1, Q05080)	SPOT intensity (Bbc1, P47068)	SPOT intensity (Boi2, P39969)	SPOT intensity (Rvs167, P39743)	SPOT intensity (Cdc25, P04821)	SPOT intensity (Lsb4, P32793)	SPOT intensity (Sla1-2, P32790)	SPOT intensity (Pex13, P80667)	SPOT intensity (Bzz1-2, P38822)	SPOT intensity (Hse1, P38753)	SPOT intensity (Bzz1-1, P38822)	SPOT intensity (Abp1, P15891)	SPOT intensity (GST)	SPOT intensity (Sho1, P40073)	SPOT intensity (Bud14, P27637)	SPOT intensity (Bem1-2, P29366)	other results
EQEEIAPSLPSRNSI	20	0	0	998	2	0	1	31	1	517	0	417	1	0	0	0	2	0	0	1	SPOT intensity (Boi1, P38041): 0; SPOT intensity (Cyk3, Q07533): 1; SPOT intensity (Myo3, P36006): 0; SPOT intensity (Pin3, Q06449): 0; SPOT intensity (Fus1, P11710): 0; SPOT intensity (Nbp2, Q12163): 0; SPOT intensity (Bem1-1, P29366): 1
APPPPPRRATPEKKP	30	14	0	432	0	14	1	525	3	424	0	68	0	0	1	77	1	21	0	3	SPOT intensity (Boi1, P38041): 0; SPOT intensity (Cyk3, Q07533): 1; SPOT intensity (Myo3, P36006): 92; SPOT intensity (Pin3, Q06449): 8; SPOT intensity (Fus1, P11710): 0; SPOT intensity (Nbp2, Q12163): 0; SPOT intensity (Bem1-1, P29366): 0
SSAAPPPPPRRATPE	266	18	0	706	1	8	0	1790	2	965	0	58	1	0	0	23	1	3	0	1	SPOT intensity (Boi1, P38041): 1; SPOT intensity (Cyk3, Q07533): 0; SPOT intensity (Myo3, P36006): 99; SPOT intensity (Pin3, Q06449): 5; SPOT intensity (Fus1, P11710): 0; SPOT intensity (Nbp2, Q12163): 0; SPOT intensity (Bem1-1, P29366): 1
EAEEAAPQLPSRSSA	62	0	2	956	0	0	1	75	2	529	0	6	2	0	2	0	0	0	0	0	SPOT intensity (Boi1, P38041): 1; SPOT intensity (Cyk3, Q07533): 0; SPOT intensity (Myo3, P36006): 0; SPOT intensity (Pin3, Q06449): 2; SPOT intensity (Fus1, P11710): 1; SPOT intensity (Nbp2, Q12163): 0; SPOT intensity (Bem1-1, P29366): 0
